# In publication PMC4497662, “Single Turnover Autophosphorylation Cycle of the PKA RIIβ Holoenzyme” (PLoS Biology, 2015):
# Where a chain is given by its changes, count along the chain named. In names and notes the source's numbering stands.
# B1: RIIβ(1–416, R230K), phosphorylated at Ser112 in the crystal (natural protein)
# chain: not shown
# modifications: phosphoserine at 112 (after the soak with CaATP)
# notes: Two copies stand with two C-subunits in the RIIβ2:C2 holoenzyme; also called pRIIβ; RIIβ(R230K); source: E. coli BL21 (DE3), purified (cAMP resin, cGMP elution); holoenzyme crystals soaked with 5 mM CaCl2 and 1 mM ATP
# B2: GST-RIIβ 102–416 (nonphosphorylated, wild type) (domain or fragment, rat, UniProt P12369 102-416, looked up)
# chain: PVINRFTRRASVCAEAYNPDEEEDDAESRIIHPKTDDQRNRLQEACKDILLFKNLDPEQMSQVLDAMFEKLVKEGEHVIDQGDDGDNFYVIDRGTFDIYVKCDGVGRCVGNYDNRGSFGELALMYNTPRAATITATSPGALWGLDRVTFRRIIVKNNAKKRKMYESFIESLPFLKSLEVSERLKVVDVIGTKVYNDGEQIIAQGDSADSFFIVESGEVRITMKRKGKSDIEENGAVEIARCLRGQYFGELALVTNKPRAASAHAIGTVKCLAMDVQAFERLLGPCMEIMKRNIATYEEQLVALFGTNMDIVEPTA
# notes: also called nonphospho form of RIIβ; source: E. coli BL21 (DE3), purified (cAMP resin, cGMP elution); cyclic nucleotide-free
# B3: phosphorylated GST-RIIβ 102–416 (pRIIβ) (domain or fragment, rat, UniProt P12369 102-416, looked up)
# chain: B2 chain
# modifications: phosphoserine at 112
# notes: source: E. coli BL21 (DE3), purified; phosphorylated in preformed holoenzyme with C-subunit and MgATP, C-subunit released on the chip with 500 nM cGMP
# B4: GST-RIIβ 102–416 S112A (domain or fragment, rat, UniProt P12369 102-416, looked up)
# chain: B2 chain with S11A
# notes: also called RIIβ(S112A); source: E. coli BL21 (DE3), purified (cAMP resin, cGMP elution); cyclic nucleotide-free
# What was measured:
# [1] = target: the molecule itself; assay: crystal structure; apo RIIβ(1–416, R230K)2:C2 holoenzyme crystals soaked overnight with 5 mM CaCl2 and 1 mM ATP; 2.8 Å
# [2] = target: T1, PKA catalytic subunit (isoform α), mouse (mouse, UniProt P05132 2-351); assay: as above; conditions: both partners purified
# [3] = target: T1, PKA catalytic subunit (isoform α), mouse; assay: SPR; GST-RIIβ 102–416 (nonphospho or phospho) captured on an anti-GST antibody CM5 chip (80–120 RU), C-subunit 0.3–200 nM injected; buffer A with 1 mM ADP and 10 mM MgCl2; global fit, 1:1 Langmuir; conditions: both partners purified
# [4] = target: T1, PKA catalytic subunit (isoform α), mouse; assay: SPR; GST-RIIβ 102–416 wild type and S112A captured on an anti-GST antibody CM5 chip (80 RU), C-subunit 30–0.12 nM injected; buffer A with 1 mM ATP and 10 mM CaCl2; 30 μL/min, 25°C; conditions: both partners purified
# [5] = target: T1, PKA catalytic subunit (isoform α), mouse; assay: SPR; GST-RIIβ 102–416 (nonphospho or phospho) captured on an anti-GST antibody CM5 chip (80–120 RU), C-subunit 0.3–200 nM injected; buffer A only (chelators EDTA/EGTA, no nucleotide or metal); global fit, 1:1 Langmuir; conditions: both partners purified
# [6] = target: T1, PKA catalytic subunit (isoform α), mouse; assay: SPR; GST-RIIβ 102–416 (nonphospho, phospho or S112A) captured on an anti-GST antibody CM5 chip (80–120 RU), C-subunit injected; buffer A (20 mM MOPS, 150 mM NaCl, 100 μM EDTA, 100 μM EGTA, 0.01% P20) with 1 mM ATP and 10 mM MgCl2; global fit, 1:1 Langmuir; 25°C stated for the series of Fig 5; conditions: both partners purified
# [7] = target: T1, PKA catalytic subunit (isoform α), mouse; assay: as above; conditions: both partners purified; remark: listed apart in the source
Binder,binding result [1],binding result [2],Kd [3],koff [3],kon [3],koff [4],Kd [5],koff [5],kon [5],Kd [6],koff [6],kon [6],binding result [7]
B1,binds,binds,,,,,,,,,,,
B2,,,0.24 nM,0.00015 s⁻¹,640000 M⁻¹ s⁻¹,~0.0001 s⁻¹,0.39 nM,0.00021 s⁻¹,530000 M⁻¹ s⁻¹,0.14 nM,0.0003 s⁻¹,2.1e+06 M⁻¹ s⁻¹,
B3,,,0.22 nM,0.00012 s⁻¹,550000 M⁻¹ s⁻¹,,0.31 nM,0.00011 s⁻¹,340000 M⁻¹ s⁻¹,7 nM,0.00026 s⁻¹,38000 M⁻¹ s⁻¹,
B4,,,,,,,,,,,,,binds
